Blank lines part the entries; values can stand above or below the molecule they belong to.
Columns and labels:
[1] = estimated; reference 26; cited from earlier work
IGF-1 = molecular target: T1, IGF-1 (Homo sapiens, UniProt P05019); assay: Biacore binding to IGF-1; details: experiment 4-79
T1 construct: purchased R&D Sciences or SinoBiologicals
Protocol: (§1) Biacore binding was performed at David Myszka's laboratory at the University of Utah or at the Genomic Research Center at Academia Sinica. Surfaces of binding protein chimera were made via chemical immobilization on a CM4 chip using standard amine coupling chemistry. […] Excess surface carboxyl activated sites on all four flow cells was blocked using the doubly positively charged species ethylenediamine. Binding experiments (but not immobilizations) in HBS-P (10 mM HEPES pH 7.4, 150 mM NaCl, 0.05% P20), The HBS-P was supplemented with BSA at 0.2 mg/mL, or HBS-P was supplemented with 500 mM NaCl (650 mM NaCl, final concentration). Analytes were also reconstituted in the corresponding buffer. All experiments were performed at 25° C. 1/150 dilutions of phosphoric acid were used to regenerate IGFBP3-Fc surfaces and a sequence of 3 M MgCl2 followed by 5 M GuCl was used to regenerate surfaces immobilized with growth factor. Dissociation constants reported below used immobilized binding protein unless noted. Differences between binding constants may be expected between growth factor immobilization and chimera immobilization.

hep3B cells = assay: hep3B proliferation assay; format: cell-based, human
How it was run: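 Cells seeded at 1,000 to 6,000 per well in DMEM/F12 with 0.2% BSA and 10 ug/ml transferrin. Inhibitors added 16-20 h after plating; IGF-1 or other growth factors at plating or 16-20 h later. After 3 to 4 days, growth read by Alamar blue fluorescence at 544/590 nm after 4 to 6 h.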

fibroblasts = assay: Proliferation induced by PDGF BB in fibroblasts (Table 8); format: cell-based
Protocol: (§2) For the proliferation assay, cells except for HUVEC were seeded at a density of 1,000 to 6,000 in 96 wells in an assay buffer of DMEM/F12 plus 0.2% BSA and 10 ug/ml transferrin. Chemical inhibitors were added after 16-20 hours after plating; IGF-1 or other growth factors or test chimeras in assay buffer were added at the time of plating or 16-20 hours after plating. 5,000 HUVEC ells were plated in poly-L-lysine coated 96 wells in M199 with 1%/FBS and HEPES. After 3 to 4 days of culture, growth was determined by incubating cells with Alamar blue for 4 to 6 hours and then the fluorescence (RFU) at 544/590 nm was read. For long term proliferation assays, cells were plated in the growth media with 5% or 10% FBS at densities of 500 to 10,000 cells per cm^2 growth area and grown for 7 to 21 days. Inhibitors and effectors were added 1-4 days after plating. Cells were exposed to cisplatin or gemcitabine for two days. Medium was renewed twice weekly. At completion, cells were fixed and then stained with Giemsa.
(§3) The BP3-fc construct inhibited the proliferation of cancer cells that had been stimulated by IGF-1, IGF-2, neuregulin, HGF, and bFGF.

VEGF [2] = molecular target: T2, VEGF (Homo sapiens, UniProt P15692); assay: In vitro proliferation stimulated by VEGF (Table 8); format: cell-based
T2 construct: purchased R&D Systems
T2 sequence (P15692 27-191 isoform P15692-4): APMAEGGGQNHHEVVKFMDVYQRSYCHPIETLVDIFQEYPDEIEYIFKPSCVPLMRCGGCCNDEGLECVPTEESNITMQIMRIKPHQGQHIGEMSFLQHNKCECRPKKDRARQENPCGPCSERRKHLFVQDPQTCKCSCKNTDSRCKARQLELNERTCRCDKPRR
Protocol: as §2
The BP3-VEGF-trap-fc (including the IGFBP3 domains, the VEGFR1 domain 2 and VEGFR2 domain 3 (VEGF-trap (22)), and human immunoglobulin Fc region) broadened the binding to include VEGF-A, VEGF-B, and placental growth factor (PIGF). This BP3-VEGF-trap chimera could inhibit the proliferation stimulated by IGF-1, IGF-2, neuregulin, PDGF-BB, HGF, bFGF, VEGF-A, and PIGF (see, Table 8).

cancer cells = assay: In vitro proliferation of cancer cells stimulated by growth factors (Table 8); format: cell-based
Protocol: as §2, §3

TGF-α = molecular target: T3, TGF-α (Homo sapiens, UniProt P01135); assay: Biacore binding to TGF-α; details: Table 5
T3 construct: purchased R&D Sciences or SinoBiologicals
Protocol: as §1

VEGF [3] = molecular target: T2, VEGF; assay: Biacore binding to VEGF; details: Table 5; the kd is very low and difficult to measure
Protocol: as §1

HUVEC cells = assay: HUVEC proliferation assay; format: cell-based
How it was run: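 HUVEC, 5,000 per well, plated on poly-L-lysine in M199 with 1% FBS and HEPES. After 3 to 4 days of culture, growth read by Alamar blue incubation for 4 to 6 hours, fluorescence (RFU) at 544/590 nm.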

[4] = system: MCF-7 breast cancer cells; assay: MCF-7 proliferation assay; format: cell-based; details: FIG. 5
Protocol: MCF-7 cells (a breast cancer cell line) were maintained in MEM (GIBCO) plus insulin and NEAA and 10% FBS (Hyclone).
as §2
We next examined the effect of 56662 (BP3/Fc) on the proliferation induced by growth factors that interacted with the IGFBP3. The proliferation of MCF-7 breast cancer cells was induced in serum-free medium by individual growth factors like IGF-1, IGF-2, EGF, TGF-a, Nrgbx, b-FGF, and amphiregulin (FIG. 1).

T1 sequence (P05019 49-118 limits assumed): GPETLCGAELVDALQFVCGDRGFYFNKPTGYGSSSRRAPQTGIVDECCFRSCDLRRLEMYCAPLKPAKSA
T3 sequence (P01135 40-89 limits assumed): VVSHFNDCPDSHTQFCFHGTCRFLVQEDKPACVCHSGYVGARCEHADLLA

Kd (IGF-1): 0.363 nM
EC50 (hep3B cells; hep3B, FIG. 11C, read-out: ECK for FBS-induced proliferation): 200 nM
Molecule: IGFBP3: insulin-like growth factor-binding protein-3, wild-type (SEQ ID NO: 1) [reference compound]
serum half-life [1]: 25 min

inhibition of proliferation stimulated by VEGF (VEGF [2]): inh
Molecule: VEGF-trap: the VEGFR1 domain 2 and VEGFR2 domain 3 (VEGF-trap (22)) [reference compound]
inhibition of proliferation stimulated by PDGF BB (fibroblasts): no
inhibition of proliferation stimulated by HGF (cancer cells): no
inhibition of proliferation stimulated by IGF-1 (cancer cells): no
inhibition of proliferation stimulated by IGF-2 (cancer cells): no
inhibition of proliferation stimulated by bFGF (cancer cells): no
inhibition of proliferation stimulated by nrgbx (cancer cells): no

Dissociation Constants, TGF-α (TGF-α): no binding
Dissociation Constants, VEGF (VEGF [3]): no binding
B1: h3t33fc: IGFBP3 with IGFBP3 linker deletion 1-Fc, SEQ ID NO: 8 (protein)
chain: MSEVPVARVWLVLLLLTVQVGVTAGGASSAGLGPVVRCEPCDARALAQCAPPPAVCAELVREPGCGCCLTCALSEGQPCGIYTERCGSGLRCQPSPDEARPLQALLDGRGLCVNASAVSKGHAKDSQRYKVDYESQSTDTQNFSSESKRETEYGPCRREMEDTLNHLKFLNVLSPRGVHIPNCDKKGFYKKKQCRPSKGRKRGFCWCVDKYGQPLPGYTTKGKEDVHCYSMQSKVECPPCPAPPVAGPSVFLFPPKPKDQLMISRTPEVTCVVVDVSHEDPEVKFNWYVDGVEVHNAKTKPREEQYNSTYRVVSVLTVLHQDWLNGKEYKCKVSNKGLPSSIEKTISKAKGQPREPQVYTLPPSREEMTKNQVSLTCLVKGFYPSDIAVEWESNGQPENNYKTTPPVLDSDGSFFLYSKLTVDKSRWQQGNVFSCSVMHEGLHNHYTQKSLSLSPGK
increase of inhibitory activity of erlotinib (hep3B cells; 100 nM chimera h3t33Fc, hep3B): about 100 fold
inhibition of hep3B cells treated with erlotinib (hep3B cells; combination with erlotinib, FIG. 15, FIG. 16A): synergistically inhibited
inhibition of VEGF-induced proliferation of HUVEC cells (HUVEC cells; FIG. 6, FIG. 13): did not inhibit
inhibition of HUVEC proliferation induced by IGF, bFGF, HGF or a combination (HUVEC cells; FIG. 13): inhibited
inhibition of IGF-1-induced proliferation of MCF-7, compared to 56662 and chimera B [4]: a smaller EC50 and a higher maximal inhibition

Source: patent US11254722B2, “Recombinant proteins and uses thereof” (ACADEMIA SINICA, priority 2017, dated 2022)
